This is an account of results in article PMC3794606, “Transactivation specificity is conserved among p53 family proteins and depends on a response element sequence code” (Nucleic Acids Research, 2013).

Data set [1] deals with T1, deltaNp73delta isoform WT (UniProt O15350-4 63-403).
T1 sequence: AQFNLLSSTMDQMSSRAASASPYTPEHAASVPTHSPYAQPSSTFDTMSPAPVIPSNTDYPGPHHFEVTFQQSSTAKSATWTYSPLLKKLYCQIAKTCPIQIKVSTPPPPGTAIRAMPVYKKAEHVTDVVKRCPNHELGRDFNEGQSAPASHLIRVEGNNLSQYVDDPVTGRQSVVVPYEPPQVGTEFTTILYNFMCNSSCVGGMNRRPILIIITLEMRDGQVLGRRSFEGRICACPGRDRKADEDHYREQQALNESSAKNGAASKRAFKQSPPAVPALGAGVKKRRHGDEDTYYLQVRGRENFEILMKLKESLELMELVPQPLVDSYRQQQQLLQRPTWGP
The experiment in a line: fluorescence polarization; FP: 50 nM fluorescein-DNA, 0-20000 nM protein, 30 min on ice then room temperature; buffer, salt and pH not stated. Crystals: 0.1 M Tris pH 8.5, 50-125 mM sodium acetate, 20-24% PEG 3350, room temperature. The conditions noted are these: protein: recombinant, chain copies: 4, label: fluorescein. For orientation: In fluorescence polarisation assays a small probe gives low polarisation when free and higher when bound to something large.

The target in data set [2] is T2, p73 DBD S139F (human, UniProt O15350 115-312, S139F).
T2 sequence: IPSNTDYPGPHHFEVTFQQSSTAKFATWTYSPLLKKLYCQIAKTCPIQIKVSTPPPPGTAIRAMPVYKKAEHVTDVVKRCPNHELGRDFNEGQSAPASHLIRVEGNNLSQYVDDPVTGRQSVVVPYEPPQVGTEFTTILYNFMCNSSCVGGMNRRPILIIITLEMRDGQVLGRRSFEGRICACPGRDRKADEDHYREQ
Put plainly: fluorescence polarization; Hill 1.9 ± 0.2; FP: 50 nM fluorescein-DNA, 0-20000 nM protein, 30 min on ice then room temperature; buffer, salt and pH not stated. Crystals: 0.1 M Tris pH 8.5, 50-125 mM sodium acetate, 20-24% PEG 3350, room temperature. Particulars: protein: recombinant; chain copies: 2; label: fluorescein.

Data set [3] concerns the target T2, p73 DBD S139F. Put plainly: fluorescence polarization; Hill 1.7 ± 0.1; FP: 50 nM fluorescein-DNA, 0-20000 nM protein, 30 min on ice then room temperature; buffer, salt and pH not stated. Crystals: 0.1 M Tris pH 8.5, 50-125 mM sodium acetate, 20-24% PEG 3350, room temperature. Particulars: protein: recombinant; chain copies: 2; label: fluorescein; self-complementary.

For data set [4], the target named is T2, p73 DBD S139F. Put plainly: fluorescence polarization; Hill 1.5 ± 0.2; FP: 50 nM fluorescein-DNA, 0-20000 nM protein, 30 min on ice then room temperature; buffer, salt and pH not stated. Crystals: 0.1 M Tris pH 8.5, 50-125 mM sodium acetate, 20-24% PEG 3350, room temperature. Particulars: protein: recombinant; chain copies: 2; label: fluorescein; self-complementary.

Data set [5] deals with the molecule itself. The experiment in a line: crystal structure; p73DBD S139F mixed at 2:1 molar ratio with annealed 20 bp DNA (…); hanging drop, 0.1 M Tris pH 8.5, 50-125 mM sodium acetate, 20-24% PEG 3350, room temperature; 3.7 A; asymmetric unit holds two protein molecules and one 10 bp half-site, the tetramer is made by crystal symmetry.

B1: 20mer GGGCA full-site (4/4 RY) (dsDNA)
DNA 1: GGGCATGCCCGGGCATGCCC
DNA 2: GGGCATGCCCGGGCATGCCC
Usually Kd stands for the concentration at which binding is half-saturated. In the case of B1, the Kd was determined as 160 nM in data set [1] and 230 nM in data set [2].

B2: 20mer GAACA full-site (0/4 RY) (dsDNA)
DNA 1: GAACATGTTCGAACATGTTC
DNA 2: GAACATGTTCGAACATGTTC
As to B2, the Kd in data set [1] (self-complementary) amounted to 940 nM; in data set [3] it was 4480 nM.

B3: 12mer GGGCA half-site (dsDNA)
DNA 1: TGGGCATGCCCA
DNA 2: TGGGCATGCCCA
For B3, in data set [4], the Kd was 1540 nM.

B4: p73DBD S139F (human p73 DNA-binding domain, residues 115-312, S139F mutant) (domain or fragment, UniProt O15350 115-312, looked up)
chain: IPSNTDYPGPHHFEVTFQQSSTAKFATWTYSPLLKKLYCQIAKTCPIQIKVSTPPPPGTAIRAMPVYKKAEHVTDVVKRCPNHELGRDFNEGQSAPASHLIRVEGNNLSQYVDDPVTGRQSVVVPYEPPQVGTEFTTILYNFMCNSSCVGGMNRRPILIIITLEMRDGQVLGRRSFEGRICACPGRDRKADEDHYREQ
notes: Crystallised with a 20 bp GAACA full-site DNA; On the DNA it forms a tetramer (dimer of dimers); also called p73 S139F DBD; S139F DBD mutant
Broadly, the stoichiometry N is the number of molecules, sites or subunits per partner or assembly. Turning to B4, the “stoichiometry N” value in data set [5] stood at 4.
